PMC12607630
pKd: −log10 of the molar value. Values joined by “and” are separate entries in the source; they are usually repeats but may differ in a detail not shown here. Equal values may be shown once.

Target: 6×His-SUMO-FtsZ 370-383 (Escherichia coli) (UniProt P0A9A6)
Assay: BLI; 6×His-SUMO fusions of FtsZ or its parts, or SUMO alone (0.5 µM), held on Ni-NTA biosensors, untagged ZapC in solution; Octet-Red96, 30°C, 1× Pol buffer (50 mM HEPES-NaOH pH 6.8, 50 mM KCl, 10 mM MgCl2); apparent Kd from the signal at the end of association against concentration, one-site fit; three repeats with mean (X) and SD

Question: With “ZapC (untagged) (from UniProt P75862 1-180) (natural protein)” as the substance, how does the pKd read?
Answer: 4.99 and 5.09 and 5.00
